Key:
[1] = target: T1, Nectin-4 expressed by tumors and Nectin-4 expressed by human keratinocytes (Homo sapiens, UniProt Q96NY8); assay: Differential binding to tumor cells and human keratinocytes
T1 construct: Cells or cell lines (10,000-50,000) expressing Nectin-4 (naturally or transfected); endogenous in cells; host or cells: SUM190/SUM190PT (also SUM149 in IHC), NHEK differentiated with 0.1 mM CaCl2, human skin sections
T1 sequence (Q96NY8 32-510): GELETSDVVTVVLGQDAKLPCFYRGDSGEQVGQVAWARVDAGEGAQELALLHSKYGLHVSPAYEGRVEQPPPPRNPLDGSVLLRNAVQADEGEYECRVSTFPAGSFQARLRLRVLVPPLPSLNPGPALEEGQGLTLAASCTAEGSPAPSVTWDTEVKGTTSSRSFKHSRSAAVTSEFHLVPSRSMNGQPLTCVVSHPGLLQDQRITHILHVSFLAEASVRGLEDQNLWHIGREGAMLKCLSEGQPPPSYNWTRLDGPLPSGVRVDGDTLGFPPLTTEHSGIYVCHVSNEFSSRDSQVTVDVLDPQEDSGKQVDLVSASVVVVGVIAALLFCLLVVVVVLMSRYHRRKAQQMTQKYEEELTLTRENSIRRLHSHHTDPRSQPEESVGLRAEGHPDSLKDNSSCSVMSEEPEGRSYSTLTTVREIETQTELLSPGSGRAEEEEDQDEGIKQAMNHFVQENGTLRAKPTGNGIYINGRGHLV
Text: FIG. 6: Differential binding to Nectin-4 expressed by tumor cell line and normal differentiated human keratinocytes. […] Cells were then stained with phycoerythrin conjugate goat anti human Fc antibody. Normalized mean fluorescence intensities are shown. Non-linear curve fitting (4 parameters) was done with GraphPad Prism 9 software. Horizontal bar is placed at 50% of maximum staining intensity obtained with HA22 antibody on SUM190 cells.
FIG. 7: Differential binding to Nectin-4 expressed by tumor cell line and normal differentiated human keratinocytes. Detection by flow cytometry. • Flow cytometry analysis of TNBC cell line (SUM190, A) and normal differentiated (0.1 mM CaCl2) human keratinocytes (NHEK, B) using 5 μg/mL of HA22 (Enfortumab), Ch-5A12.2, Ch-15A7.5, and Ch-8F06. Cells were then stained with phycoerythrin conjugate goat anti human Fc antibody. Normalized mean fluorescence intensities are shown.
FIG. 8: Differential binding to Nectin-4 expressed by tumor cell line and human keratinocytes. Detection by immuno-histochemistry. Cryo-preserved OCT-embedded blocks of high expressing levels of Nectin-4 tumor cell line (SUM190), low expressing levels of Nectin-4 tumor cell line (SUM149), human and cynomolgus skin were processed for staining with 15A7.5 mAb (A) and 9A2.7 mAb (B). Quick score reported for each mAb are shown (A, B). C, ratio of quick score SUM190 over human skin. […]
Remaining blocks were stored at −80° C. until further use. […] Several dilution of each mAb were tested to optimize noise to signal ratio and 0.5 μg/ml of mouse 15A7.5 mAb and 10 µg/mL of mouse 9A2.7 mAb were determined as optimal. […] Both the stained cells proportion and the staining intensity were evaluated for each field. […] Scoring procedure was as follows: (i) The proportion of cells stained positively was estimated and a score from 0 to 4 was be assigned for each field (0=0-5%; 1=5-25%; 2=25-50%; 3=50-75%; and 4=75-100%); and (ii) The staining intensity was scored as 0, 1, 2, or 3 corresponding to the presence of negative, weak, intermediate, and strong brown staining, respectively. […]

In vivo half-life = conditions: due to a lower absorption rate in the skin
[2] = tested on: SUM190PT cells and normal human differentiated keratinocytes; assay: Internalization assay with pHAB dye conjugates, tumor cell line and keratinocytes; format: cell-based; conditions: in vitro, in reference to HA22 mAb (Enfortumab)
Protocol: FIG. 9: Differential internalization in tumor cell line and human keratinocytes. Detection by fluorescence Enfortumab (HA22), Ch-15A7.5 and Isotypic control mAbs were coupled to pHAB thiol reactive dye to reach dye antibody ratio comprised between 4.58 and 5.55. A dose range of each of these antibody dye conjugates (1.6 ng/ml-5 μg/mL) was incubated in duplicates with SUM190PT Nectin-4-expressing cell line (A) normal human differentiated (0.1 mM CaCl2) keratinocytes (B). Intracellular fluorescence was recorded after 24 hours with florescence microplate reader (ClarioStar). Reported are the fluorescence intensities in function of dye antibody conjugate concentration.
Ten thousand SUM190PT or human differentiated keratinocytes (0.1 mM CaCl2) were seeded in 96-wells plates and subsequently incubated for 24 hours at 37° C., with a dose range (1.6 ng/ml-1 μg/mL) of anti Nectin-4 mAbs and isotypic control conjugated with pHAB thiol reactive dye. Upon internalization and endo-lysosomal processing, the acidic environment causes the dye to fluoresce. Fluorescence intensity was monitored on a plate reader with an excitation at 532 nm and an emission at 560 nm.
The thiol reactive dye pHAB (Promega) was conjugated to cysteine of selected anti-Nectin-4 ThiomAb (D265C, L234A, L235A) antibodies using maleimide chemistry according to manufacturer's instructions. […]

[3] = tested on: SUM190PT cells and normal human differentiated keratinocytes; format: cell-based
Protocol: FIG. 10: Differential in vitro cytotoxic activity to tumor cells and normal differentiated human keratinocytes. […] Viability (MTT assay) after a 5-days incubation period is reported. EC50 values were determined by GraphPad Prism 9 software using non-linear curve fitting (4 parameters). […] Data shown is representative of 2 different Nectin-4 expressing tumor cell lines (SUM190PT and MDA-MB468) and 3 independent donors for human keratinocytes.
To analyze the in vitro cytotoxic activity of ADC, cell viability was assessed using the AlamarBlue staining protocol as recommended by the manufacturer (Biosource, CA, USA). The test incorporates a fluorescent oxidation-reduction indicator. Fluorescence intensity is proportional to cellular metabolic reduction. Experiments were done by incubating 3000 cells/well (SUM190PT or differentiated NHEK) in triplicate with serial dilutions of ADC at Day 0 in 96-wells plates. AlamarBlue was measured at Day 5 by incubating 1/10 volume of alamarBlue solution for 2 h at 37° C. and read at 595 nm (FLUOstar Optima, BMG Labtech).

affinity to Nectin-4 expressed by tumors in comparison to Nectin-4 expressed by human keratinocytes ([1]; in vitro differentiated Nectin-4 expressing keratinocytes): higher affinity
binding affinity towards keratinocytes in comparison to tumor cells ([1]; in vitro, in reference to HA22 mAb (Enfortumab)): lower binding affinity
B1: mAb 15A7.5: parental monoclonal anti-Nectin-4 antibody, CDRs SEQ ID NO: 1-12, VH/VL SEQ ID NO: 13/14 (antibody, V domains shown)
VH: EVKLVESGGGLVQPGGSRKLSCAASGFTFSNYGMAWVRQAPGKGPEWVAFISNLAYGINYADTVTGRFTISRENAKNTLYLEMRSLRSEDTAMYYCARGARATGWFAYWGQGTLVTVSA
VL: DIVMTQSQKFMSTSIGDRVSVTCKASQNVDTHVAWYQEKPGQSPKALIYSASYRYSGVPDRFTGSGSGTDFTLTISNVQSEDLADYFCQQYNSYPLTFGGGTKLEIK
modifications: VH_15A7.5; VK_15A7.5
half-life (In vivo half-life): higher half-life
internalization towards keratinocytes in comparison to tumor cells [2]: lower
cytotoxic activity towards keratinocytes in comparison to tumor cells [3]: lower
